Molecular target: T1, CXCR2 (human, UniProt P25025 1-360)
T1 sequence: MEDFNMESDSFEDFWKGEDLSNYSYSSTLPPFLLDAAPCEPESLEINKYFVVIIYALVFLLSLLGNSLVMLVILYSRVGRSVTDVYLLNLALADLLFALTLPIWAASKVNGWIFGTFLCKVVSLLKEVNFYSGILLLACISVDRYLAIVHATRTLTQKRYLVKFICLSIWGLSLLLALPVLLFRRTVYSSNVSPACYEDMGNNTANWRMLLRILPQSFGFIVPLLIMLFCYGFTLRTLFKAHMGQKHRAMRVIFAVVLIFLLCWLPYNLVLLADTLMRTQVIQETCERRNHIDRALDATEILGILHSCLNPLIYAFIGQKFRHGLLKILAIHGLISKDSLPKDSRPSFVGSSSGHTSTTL

B1: PX3.101 protein purified from honeybee venom (other)
chain: GGFGGFGGFGGLGGRGKCPSNEIFSRCDGRCQRFCPNVVPKPLCIKICAPGCVCRLGYLRNKKKVCVPRSKCG
B1 showed an IC50 of 500 nM.

From patent publication US6395306 (PAN PACIFIC PHARMACEUTICALS, dated 2002)
